# Publication PMC9482650, “Quantitative fragmentomics allow affinity mapping of interactomes” (Nature Communications, 2022)
# T1: ARHGEF11, O15085
# T1 sequence (O15085 42-136, limits assumed, looked up): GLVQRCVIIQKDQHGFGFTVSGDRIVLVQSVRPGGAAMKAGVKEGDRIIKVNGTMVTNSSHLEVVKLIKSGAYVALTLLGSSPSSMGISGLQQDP
# T2: DFNB31_1, Q9P202
# T2 sequence (Q9P202 135-233, limits assumed, looked up): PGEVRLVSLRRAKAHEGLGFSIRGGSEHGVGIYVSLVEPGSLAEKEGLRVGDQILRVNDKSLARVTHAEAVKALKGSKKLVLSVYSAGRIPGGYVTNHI
# T3: GRIP1_7, Q9Y3R0
# T3 sequence (Q9Y3R0 999-1096, limits assumed, looked up): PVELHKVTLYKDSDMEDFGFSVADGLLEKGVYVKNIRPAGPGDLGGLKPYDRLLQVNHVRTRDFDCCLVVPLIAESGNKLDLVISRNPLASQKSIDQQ
# T4: HTRA4, P83105
# T4 sequence (P83105 378-476, limits assumed, looked up): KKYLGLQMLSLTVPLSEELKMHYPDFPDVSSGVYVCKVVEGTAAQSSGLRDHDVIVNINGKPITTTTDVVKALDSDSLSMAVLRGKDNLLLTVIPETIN
# T5: LIN7A, O14910
# T5 sequence (O14910 103-200, limits assumed, looked up): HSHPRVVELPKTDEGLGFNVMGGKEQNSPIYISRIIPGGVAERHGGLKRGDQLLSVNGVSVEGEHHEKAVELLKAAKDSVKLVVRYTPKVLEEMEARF
# T6: LNX2_2, Q8N448
# T6 sequence (Q8N448 334-432, limits assumed, looked up): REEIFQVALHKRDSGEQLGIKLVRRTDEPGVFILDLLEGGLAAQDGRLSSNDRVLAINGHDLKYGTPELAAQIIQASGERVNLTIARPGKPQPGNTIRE
# T7: MPDZ_10, O75970
# T7 sequence (O75970 1624-1722, limits assumed, looked up): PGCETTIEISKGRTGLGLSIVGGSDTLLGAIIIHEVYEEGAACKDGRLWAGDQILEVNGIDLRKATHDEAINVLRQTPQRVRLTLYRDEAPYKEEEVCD
# T8: MPP2, Q14168
# T8 sequence (Q14168 180-250, limits assumed, looked up): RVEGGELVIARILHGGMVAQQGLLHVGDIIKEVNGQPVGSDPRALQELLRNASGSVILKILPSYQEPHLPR
# T9: NHERF3_4, Q5T2W1
# T9 sequence (Q5T2W1 373-468, limits assumed, looked up): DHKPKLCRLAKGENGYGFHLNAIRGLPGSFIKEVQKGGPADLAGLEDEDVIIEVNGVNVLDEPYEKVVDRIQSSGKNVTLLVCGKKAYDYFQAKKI
# T10: PCLO, Q9Y6V0
# T10 sequence (Q9Y6V0 4491-4600, limits assumed, looked up): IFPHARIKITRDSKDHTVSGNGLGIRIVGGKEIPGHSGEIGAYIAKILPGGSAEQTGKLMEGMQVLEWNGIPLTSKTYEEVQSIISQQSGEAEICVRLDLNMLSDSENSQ
# T11: RADIL, Q96JH8
# T11 sequence (Q96JH8 971-1071, limits assumed, looked up): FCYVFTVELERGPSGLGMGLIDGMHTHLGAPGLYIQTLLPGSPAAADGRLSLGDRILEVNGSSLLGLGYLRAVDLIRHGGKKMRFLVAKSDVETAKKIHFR
# T12: TX1BP3, O14907
# T12 sequence (O14907 10-122, limits assumed, looked up): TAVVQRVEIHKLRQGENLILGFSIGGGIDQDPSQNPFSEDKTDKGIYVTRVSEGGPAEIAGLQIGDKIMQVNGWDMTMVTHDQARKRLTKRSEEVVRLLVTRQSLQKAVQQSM
# Biological target: T1, ARHGEF11, O15085
# Assay: holdup assay
# Set-up: key: below the threshold = too weak to quantify, mostly under pKd 3.1 to 4
# Conditions: plain residues with an end cap or a label only (N-terminal biotin on a linker: ado-ado)
row,pKd,Binder
1,below the threshold,"ETQVTAETVI [TMEM225B, P0DP42]"

# Biological target: T2, DFNB31_1, Q9P202
# Assay: holdup assay
# Set-up: key: below the threshold = too weak to quantify, mostly under pKd 3.1 to 4
# Conditions: plain residues with an end cap or a label only (N-terminal biotin on a linker: ado-ado)
row,pKd,Binder
1,4.59,"ETQVTAETVI [TMEM225B, P0DP42]"

# Biological target: FRMPD2_1, Q68DX3
# Assay: holdup assay
# Set-up: key: below the threshold = too weak to quantify, mostly under pKd 3.1 to 4
# Conditions: plain residues with an end cap or a label only (N-terminal biotin on a linker: ado-ado)
# Chain of FRMPD2_1, Q68DX3 (Q68DX3 770-861): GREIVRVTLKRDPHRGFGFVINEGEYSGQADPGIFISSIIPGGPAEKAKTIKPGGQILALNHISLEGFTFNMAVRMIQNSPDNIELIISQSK
row,pKd,Binder
1,below the threshold,"ETQVTAETVI [TMEM225B, P0DP42]"

# Biological target: FRMPD2_2, Q68DX3
# Assay: holdup assay
# Set-up: key: below the threshold = too weak to quantify, mostly under pKd 3.1 to 4
# Conditions: plain residues with an end cap or a label only (N-terminal biotin on a linker: ado-ado)
# Chain of FRMPD2_2, Q68DX3 (Q68DX3 944-1038): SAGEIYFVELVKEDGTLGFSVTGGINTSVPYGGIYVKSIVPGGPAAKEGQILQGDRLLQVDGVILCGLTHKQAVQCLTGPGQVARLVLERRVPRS
row,pKd,Binder
1,below the threshold,"ETQVTAETVI [TMEM225B, P0DP42]"

# Biological target: GOPC, Q9HD26
# Assay: holdup assay
# Set-up: key: below the threshold = too weak to quantify, mostly under pKd 3.1 to 4
# Conditions: plain residues with an end cap or a label only (N-terminal biotin on a linker: ado-ado)
row,pKd,Binder
1,below the threshold,"ETQVTAETVI [TMEM225B, P0DP42]"

# Biological target: T3, GRIP1_7, Q9Y3R0
# Assay: holdup assay
# Set-up: key: below the threshold = too weak to quantify, mostly under pKd 3.1 to 4
# Conditions: plain residues with an end cap or a label only (N-terminal biotin on a linker: ado-ado)
row,pKd,Binder
1,below the threshold,"ETQVTAETVI [TMEM225B, P0DP42]"

# Biological target: T4, HTRA4, P83105
# Assay: holdup assay
# Set-up: key: below the threshold = too weak to quantify, mostly under pKd 3.1 to 4
# Conditions: plain residues with an end cap or a label only (N-terminal biotin on a linker: ado-ado)
row,pKd,Binder
1,below the threshold,"ETQVTAETVI [TMEM225B, P0DP42]"

# Biological target: IL16_3, Q14005
# Assay: holdup assay
# Set-up: key: below the threshold = too weak to quantify, mostly under pKd 3.1 to 4
# Conditions: plain residues with an end cap or a label only (N-terminal biotin on a linker: ado-ado)
# Chain of IL16_3, Q14005 (Q14005 1107-1207): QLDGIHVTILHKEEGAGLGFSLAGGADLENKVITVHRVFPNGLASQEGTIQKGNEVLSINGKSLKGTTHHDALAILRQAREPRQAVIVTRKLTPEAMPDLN
row,pKd,Binder
1,below the threshold,"ETQVTAETVI [TMEM225B, P0DP42]"

# Biological target: Inadl_10, Q8NI35
# Assay: holdup assay
# Set-up: key: below the threshold = too weak to quantify, mostly under pKd 3.1 to 4
# Conditions: plain residues with an end cap or a label only (N-terminal biotin on a linker: ado-ado)
# Chain of Inadl_10, Q8NI35 (Q8NI35 1673-1763): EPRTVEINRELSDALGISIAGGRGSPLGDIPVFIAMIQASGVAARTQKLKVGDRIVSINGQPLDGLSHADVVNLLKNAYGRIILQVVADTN
row,pKd,Binder
1,below the threshold,"ETQVTAETVI [TMEM225B, P0DP42]"

# Biological target: Inadl_5, Q8NI35
# Assay: holdup assay
# Set-up: key: below the threshold = too weak to quantify, mostly under pKd 3.1 to 4
# Conditions: plain residues with an end cap or a label only (N-terminal biotin on a linker: ado-ado)
# Chain of Inadl_5, Q8NI35 (Q8NI35 673-780): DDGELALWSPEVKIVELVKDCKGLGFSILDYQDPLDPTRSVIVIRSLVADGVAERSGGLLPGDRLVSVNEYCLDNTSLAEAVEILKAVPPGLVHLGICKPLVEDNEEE
row,pKd,Binder
1,below the threshold,"ETQVTAETVI [TMEM225B, P0DP42]"

# Biological target: Inadl_9, Q8NI35
# Assay: holdup assay
# Set-up: key: below the threshold = too weak to quantify, mostly under pKd 3.1 to 4
# Conditions: plain residues with an end cap or a label only (N-terminal biotin on a linker: ado-ado)
# Chain of Inadl_9, Q8NI35 (Q8NI35 1530-1615): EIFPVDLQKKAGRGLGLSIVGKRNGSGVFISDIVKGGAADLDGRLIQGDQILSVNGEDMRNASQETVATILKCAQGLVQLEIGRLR
row,pKd,Binder
1,below the threshold,"ETQVTAETVI [TMEM225B, P0DP42]"

# Biological target: T5, LIN7A, O14910
# Assay: holdup assay
# Set-up: key: below the threshold = too weak to quantify, mostly under pKd 3.1 to 4
# Conditions: plain residues with an end cap or a label only (N-terminal biotin on a linker: ado-ado)
row,pKd,Binder
1,below the threshold,"ETQVTAETVI [TMEM225B, P0DP42]"

# Biological target: LNX1_3, Q8TBB1
# Assay: holdup assay
# Set-up: key: below the threshold = too weak to quantify, mostly under pKd 3.1 to 4
# Conditions: plain residues with an end cap or a label only (N-terminal biotin on a linker: ado-ado)
# Chain of LNX1_3, Q8TBB1 (Q8TBB1 500-596): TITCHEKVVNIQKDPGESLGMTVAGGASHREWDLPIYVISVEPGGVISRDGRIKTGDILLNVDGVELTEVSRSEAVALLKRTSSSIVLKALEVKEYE
row,pKd,Binder
1,below the threshold,"ETQVTAETVI [TMEM225B, P0DP42]"

# Biological target: T6, LNX2_2, Q8N448
# Assay: holdup assay
# Set-up: key: below the threshold = too weak to quantify, mostly under pKd 3.1 to 4
# Conditions: plain residues with an end cap or a label only (N-terminal biotin on a linker: ado-ado)
row,pKd,Binder
1,4.46,"ETQVTAETVI [TMEM225B, P0DP42]"

# Biological target: MAGI1_1, Q96QZ7
# Assay: holdup assay
# Set-up: key: below the threshold = too weak to quantify, mostly under pKd 3.1 to 4
# Conditions: plain residues with an end cap or a label only (N-terminal biotin on a linker: ado-ado)
# Chain of MAGI1_1, Q96QZ7 (Q96QZ7 1-106): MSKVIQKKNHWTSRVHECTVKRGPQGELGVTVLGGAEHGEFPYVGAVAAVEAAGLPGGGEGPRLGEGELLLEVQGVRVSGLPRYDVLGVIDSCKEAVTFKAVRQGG
row,pKd,Binder
1,below the threshold,"ETQVTAETVI [TMEM225B, P0DP42]"

# Biological target: MAGI1_2, Q96QZ7
# Assay: holdup assay
# Set-up: key: below the threshold = too weak to quantify, mostly under pKd 3.1 to 4
# Conditions: plain residues with an end cap or a label only (N-terminal biotin on a linker: ado-ado)
# Chain of MAGI1_2, Q96QZ7 (Q96QZ7 456-580): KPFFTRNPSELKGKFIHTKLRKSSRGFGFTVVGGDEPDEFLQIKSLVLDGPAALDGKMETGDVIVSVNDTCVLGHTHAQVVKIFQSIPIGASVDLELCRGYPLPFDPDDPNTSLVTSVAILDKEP
row,pKd,Binder
1,below the threshold,"ETQVTAETVI [TMEM225B, P0DP42]"

# Biological target: MAGI3_2, Q5TCQ9
# Assay: holdup assay
# Set-up: key: below the threshold = too weak to quantify, mostly under pKd 3.1 to 4
# Conditions: plain residues with an end cap or a label only (N-terminal biotin on a linker: ado-ado)
# Chain of MAGI3_2, Q5TCQ9 (Q5TCQ9 398-503): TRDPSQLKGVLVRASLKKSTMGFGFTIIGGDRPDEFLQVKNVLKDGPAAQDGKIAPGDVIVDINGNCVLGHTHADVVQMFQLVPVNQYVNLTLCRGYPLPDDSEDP
row,pKd,Binder
1,3.79,"ETQVTAETVI [TMEM225B, P0DP42]"

# Biological target: T7, MPDZ_10, O75970
# Assay: holdup assay
# Set-up: key: below the threshold = too weak to quantify, mostly under pKd 3.1 to 4
# Conditions: plain residues with an end cap or a label only (N-terminal biotin on a linker: ado-ado)
row,pKd,Binder
1,below the threshold,"ETQVTAETVI [TMEM225B, P0DP42]"

# Biological target: T8, MPP2, Q14168
# Assay: holdup assay
# Set-up: key: below the threshold = too weak to quantify, mostly under pKd 3.1 to 4
# Conditions: plain residues with an end cap or a label only (N-terminal biotin on a linker: ado-ado)
row,pKd,Binder
1,below the threshold,"ETQVTAETVI [TMEM225B, P0DP42]"

# Biological target: T9, NHERF3_4, Q5T2W1
# Assay: holdup assay
# Set-up: key: below the threshold = too weak to quantify, mostly under pKd 3.1 to 4
# Conditions: plain residues with an end cap or a label only (N-terminal biotin on a linker: ado-ado)
row,pKd,Binder
1,below the threshold,"ETQVTAETVI [TMEM225B, P0DP42]"

# Biological target: T10, PCLO, Q9Y6V0
# Assay: holdup assay
# Set-up: key: below the threshold = too weak to quantify, mostly under pKd 3.1 to 4
# Conditions: plain residues with an end cap or a label only (N-terminal biotin on a linker: ado-ado)
row,pKd,Binder
1,below the threshold,"ETQVTAETVI [TMEM225B, P0DP42]"

# Biological target: T11, RADIL, Q96JH8
# Assay: holdup assay
# Set-up: key: below the threshold = too weak to quantify, mostly under pKd 3.1 to 4
# Conditions: plain residues with an end cap or a label only (N-terminal biotin on a linker: ado-ado)
row,pKd,Binder
1,below the threshold,"ETQVTAETVI [TMEM225B, P0DP42]"

# Biological target: TJP1_2, Q07157
# Assay: holdup assay
# Set-up: key: below the threshold = too weak to quantify, mostly under pKd 3.1 to 4
# Conditions: plain residues with an end cap or a label only (N-terminal biotin on a linker: ado-ado)
# Chain of TJP1_2, Q07157 (Q07157 181-274): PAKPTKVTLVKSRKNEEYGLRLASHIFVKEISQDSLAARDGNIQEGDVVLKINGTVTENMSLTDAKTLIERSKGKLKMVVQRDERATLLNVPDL
row,pKd,Binder
1,below the threshold,"ETQVTAETVI [TMEM225B, P0DP42]"

# Biological target: TJP2_1, Q9UDY2
# Assay: holdup assay
# Set-up: key: below the threshold = too weak to quantify, mostly under pKd 3.1 to 4
# Conditions: plain residues with an end cap or a label only (N-terminal biotin on a linker: ado-ado)
# Chain of TJP2_1, Q9UDY2 (Q9UDY2 24-128): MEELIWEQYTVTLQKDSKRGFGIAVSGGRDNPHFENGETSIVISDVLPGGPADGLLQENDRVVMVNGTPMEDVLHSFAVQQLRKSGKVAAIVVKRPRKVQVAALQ
row,pKd,Binder
1,below the threshold,"ETQVTAETVI [TMEM225B, P0DP42]"

# Biological target: T12, TX1BP3, O14907
# Assay: holdup assay
# Set-up: key: below the threshold = too weak to quantify, mostly under pKd 3.1 to 4
# Conditions: plain residues with an end cap or a label only (N-terminal biotin on a linker: ado-ado)
row,pKd,Binder
1,below the threshold,"ETQVTAETVI [TMEM225B, P0DP42]"
